What all share (details): FAD
Substrate in series [1]: N[C@H](CCC(=O)O)C(=O)O
The series is described as follows: purified protein.

Substrate in series [2]: C[C@@H](N)C(=O)O
The series is described as follows: purified protein.

Substrate in series [3]: NCCCC[C@@H](N)C(=O)O
As to the kind of experiment: steady-state kinetics, oxygen consumption assay (Km). The series is classed as biochemical, Rhodotorula toruloides.

B1: RgDAAO (D-amino acid oxidase from Rhodotorula gracilis) (Rhodotorula toruloides) (protein)
chain: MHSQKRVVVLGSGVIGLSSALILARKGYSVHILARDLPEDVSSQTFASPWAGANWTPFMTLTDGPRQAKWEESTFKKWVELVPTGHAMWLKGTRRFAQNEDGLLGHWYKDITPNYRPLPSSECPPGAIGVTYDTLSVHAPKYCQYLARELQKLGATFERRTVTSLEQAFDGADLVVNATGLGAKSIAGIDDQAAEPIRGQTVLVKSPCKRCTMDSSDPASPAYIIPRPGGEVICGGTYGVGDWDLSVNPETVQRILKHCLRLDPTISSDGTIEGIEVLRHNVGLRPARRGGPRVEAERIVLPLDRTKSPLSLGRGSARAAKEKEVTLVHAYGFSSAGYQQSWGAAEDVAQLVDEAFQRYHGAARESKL
notes: recombinant wild-type RgDAAO
For the protein B1, the results for the Km (in “purified protein [1]”; in “purified protein [2]”; in series [3]) were 76.4 ± 6.4 mM, 1.3 ± 0.2 mM and 14.6 ± 1.4 mM, respectively. The Vmax in the series “purified protein [1]” stood at 1.7 µmol/min/mg; in the series “purified protein [2]”, 100 µmol/min/mg; in series [3], 16.4 µmol/min/mg.

One may read the Km as the substrate concentration at which the rate is half of its maximum. In general, Vmax refers to the rate approached at saturating substrate.

Values taken from article PMC5785730, “Assays of D-Amino Acid Oxidase Activity” (Frontiers in Molecular Biosciences, 2018).
